Our source for the abundance fitness values is the Human Domainome abundance scans (Beltran et al. 2025).

± gives the uncertainty stated by the source.

The labels stand for the following.
B1: KAT8 regulatory NSL complex subunit 2, residues 28 to 91; numbered along this chain, Q9H9L4 (parent)
chain: CAFTHRPCSHPRLEGQEFCIKHILEDKNAPFKQCSYISTKNGKRCPNAAPKPEKKDGVSFCAEH

The variants in this data set derive from B1. As to the kind of experiment: abundance fitness (aPCA) (normalised: wild type 0, dead -1); higher = more abundant; growth selection in yeast, the domain comes from the species named. Particulars: Homo sapiens.
Turning to CAFTHRPCQHPRLEGQEFCIKHILEDKNAPFKQCSYISTKNGKRCPNAAPKPEKKDGVSFCAEH [S9Q], the abundance fitness is -0.115 ± 0.062. As for CAFTHRPCMHPRLEGQEFCIKHILEDKNAPFKQCSYISTKNGKRCPNAAPKPEKKDGVSFCAEH [S9M], the figure is -0.135 ± 0.06; as for CAFTHRPCNHPRLEGQEFCIKHILEDKNAPFKQCSYISTKNGKRCPNAAPKPEKKDGVSFCAEH [S9N], -0.313 ± 0.1.

For the variant CAFTHRPCVHPRLEGQEFCIKHILEDKNAPFKQCSYISTKNGKRCPNAAPKPEKKDGVSFCAEH [S9V], the abundance fitness was -0.065 ± 0.075.

For the variant CAFTHRPCHHPRLEGQEFCIKHILEDKNAPFKQCSYISTKNGKRCPNAAPKPEKKDGVSFCAEH [S9H], the abundance fitness was -0.119 ± 0.085. As for CAFTHRPCLHPRLEGQEFCIKHILEDKNAPFKQCSYISTKNGKRCPNAAPKPEKKDGVSFCAEH [S9L], the figure is -0.113 ± 0.047; as for CAFTHRPCFHPRLEGQEFCIKHILEDKNAPFKQCSYISTKNGKRCPNAAPKPEKKDGVSFCAEH [S9F], 0.008 ± 0.08; as for CAFTHRPCDHPRLEGQEFCIKHILEDKNAPFKQCSYISTKNGKRCPNAAPKPEKKDGVSFCAEH [S9D], -0.121 ± 0.073.

Regarding CAFTHRPCGHPRLEGQEFCIKHILEDKNAPFKQCSYISTKNGKRCPNAAPKPEKKDGVSFCAEH [S9G], the abundance fitness was -0.13 ± 0.051.

With CAFTHRPCRHPRLEGQEFCIKHILEDKNAPFKQCSYISTKNGKRCPNAAPKPEKKDGVSFCAEH [S9R], the abundance fitness was -0.186 ± 0.047. As for CAFTHRPCKHPRLEGQEFCIKHILEDKNAPFKQCSYISTKNGKRCPNAAPKPEKKDGVSFCAEH [S9K], the figure is -0.343 ± 0.068; as for CAFTHRPCTHPRLEGQEFCIKHILEDKNAPFKQCSYISTKNGKRCPNAAPKPEKKDGVSFCAEH [S9T], -0.193 ± 0.062; as for CAFTHRPCPHPRLEGQEFCIKHILEDKNAPFKQCSYISTKNGKRCPNAAPKPEKKDGVSFCAEH [S9P], -0.174 ± 0.066. As for CAFTHRPCCHPRLEGQEFCIKHILEDKNAPFKQCSYISTKNGKRCPNAAPKPEKKDGVSFCAEH [S9C], the figure is -0.123 ± 0.08. The same measure for CAFTHRPCIHPRLEGQEFCIKHILEDKNAPFKQCSYISTKNGKRCPNAAPKPEKKDGVSFCAEH [S9I]: 0.016 ± 0.12. For CAFTHRPCEHPRLEGQEFCIKHILEDKNAPFKQCSYISTKNGKRCPNAAPKPEKKDGVSFCAEH [S9E], the abundance fitness was -0.191 ± 0.083.

Consider CAFTHRPCSHERLEGQEFCIKHILEDKNAPFKQCSYISTKNGKRCPNAAPKPEKKDGVSFCAEH [P11E], for which the abundance fitness is -0.004 ± 0.059. The same measure for CAFTHRPCSHCRLEGQEFCIKHILEDKNAPFKQCSYISTKNGKRCPNAAPKPEKKDGVSFCAEH [P11C]: -0.296 ± 0.098; for CAFTHRPCSHARLEGQEFCIKHILEDKNAPFKQCSYISTKNGKRCPNAAPKPEKKDGVSFCAEH [P11A]: -0.032 ± 0.066; for CAFTHRPCSHDRLEGQEFCIKHILEDKNAPFKQCSYISTKNGKRCPNAAPKPEKKDGVSFCAEH [P11D]: -0.068 ± 0.12. As for CAFTHRPCSHIRLEGQEFCIKHILEDKNAPFKQCSYISTKNGKRCPNAAPKPEKKDGVSFCAEH [P11I], the figure is -0.298 ± 0.14. For CAFTHRPCSHVRLEGQEFCIKHILEDKNAPFKQCSYISTKNGKRCPNAAPKPEKKDGVSFCAEH [P11V], the abundance fitness was -0.197 ± 0.053. The same measure for CAFTHRPCSHLRLEGQEFCIKHILEDKNAPFKQCSYISTKNGKRCPNAAPKPEKKDGVSFCAEH [P11L]: -0.18 ± 0.055; for CAFTHRPCSHWRLEGQEFCIKHILEDKNAPFKQCSYISTKNGKRCPNAAPKPEKKDGVSFCAEH [P11W]: -0.555 ± 0.079; for CAFTHRPCSHSRLEGQEFCIKHILEDKNAPFKQCSYISTKNGKRCPNAAPKPEKKDGVSFCAEH [P11S]: -0.162 ± 0.067. The same measure for CAFTHRPCSHKRLEGQEFCIKHILEDKNAPFKQCSYISTKNGKRCPNAAPKPEKKDGVSFCAEH [P11K]: -0.067 ± 0.085; for CAFTHRPCSHGRLEGQEFCIKHILEDKNAPFKQCSYISTKNGKRCPNAAPKPEKKDGVSFCAEH [P11G]: -0.133 ± 0.062; for CAFTHRPCSHRRLEGQEFCIKHILEDKNAPFKQCSYISTKNGKRCPNAAPKPEKKDGVSFCAEH [P11R]: -0.092 ± 0.051. For CAFTHRPCSHHRLEGQEFCIKHILEDKNAPFKQCSYISTKNGKRCPNAAPKPEKKDGVSFCAEH [P11H], the abundance fitness was -0.234 ± 0.092. As for CAFTHRPCSHMRLEGQEFCIKHILEDKNAPFKQCSYISTKNGKRCPNAAPKPEKKDGVSFCAEH [P11M], the figure is -0.092 ± 0.058.

For CAFTHRPCSHNRLEGQEFCIKHILEDKNAPFKQCSYISTKNGKRCPNAAPKPEKKDGVSFCAEH [P11N], the abundance fitness was -0.282 ± 0.1. As to CAFTHRPCSHPRCEGQEFCIKHILEDKNAPFKQCSYISTKNGKRCPNAAPKPEKKDGVSFCAEH [L13C], the abundance fitness is -0.365 ± 0.11. As to CAFTHRPCSHPRAEGQEFCIKHILEDKNAPFKQCSYISTKNGKRCPNAAPKPEKKDGVSFCAEH [L13A], the abundance fitness was -0.187 ± 0.057.

Turning to CAFTHRPCSHPRHEGQEFCIKHILEDKNAPFKQCSYISTKNGKRCPNAAPKPEKKDGVSFCAEH [L13H], the abundance fitness was -0.215 ± 0.088. In the case of CAFTHRPCSHPRFEGQEFCIKHILEDKNAPFKQCSYISTKNGKRCPNAAPKPEKKDGVSFCAEH [L13F], the abundance fitness is -0.324 ± 0.075.

Regarding CAFTHRPCSHPRDEGQEFCIKHILEDKNAPFKQCSYISTKNGKRCPNAAPKPEKKDGVSFCAEH [L13D], the abundance fitness was -0.501 ± 0.086. As for CAFTHRPCSHPREEGQEFCIKHILEDKNAPFKQCSYISTKNGKRCPNAAPKPEKKDGVSFCAEH [L13E], the abundance fitness was -0.334 ± 0.12. The same measure for CAFTHRPCSHPRGEGQEFCIKHILEDKNAPFKQCSYISTKNGKRCPNAAPKPEKKDGVSFCAEH [L13G]: -0.423 ± 0.072. Turning to CAFTHRPRSHPRLEGQEFCIKHILEDKNAPFKQCSYISTKNGKRCPNAAPKPEKKDGVSFCAEH [C8R], the abundance fitness was -1.02 ± 0.06. As for CAFTHRPNSHPRLEGQEFCIKHILEDKNAPFKQCSYISTKNGKRCPNAAPKPEKKDGVSFCAEH [C8N], the figure is -0.641 ± 0.1; as for CAFTHRPLSHPRLEGQEFCIKHILEDKNAPFKQCSYISTKNGKRCPNAAPKPEKKDGVSFCAEH [C8L], -1.31 ± 0.07; as for CAFTHRPQSHPRLEGQEFCIKHILEDKNAPFKQCSYISTKNGKRCPNAAPKPEKKDGVSFCAEH [C8Q], -0.832 ± 0.093.
